{
  "source": "the supplement of paper PMC7125110",
  "parents": {"B1": {"name": "glmS ribozyme (parent)", "chain": "AUAAAAGCGCCAGAACUACAGAAAUGUAGUUGACGAGGAGGAGGUUUAUCGAAUUUUCGGCGGAUGCCUCCAAA"}},
  "conditions_in_all_cases": "with glucosamine-6-phosphate",
  "key": {"[1]": {"variants_of": "B1", "experiment": "self-cleavage kobs at 40 uM GlcN6P; higher = faster cleavage; RNA array", "how_it_was_run": "(§1)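 Glucosamine-6-phosphate, from 40 μM to 10 mM in HEPES/KCl/Mg(OAc)2 buffer, was flowed over sequenced MiSeq chips carrying barcoded ribozyme variants transcribed in situ by E. coli RNA polymerase. A hybridised Cy3 probe tracked the variants at 37 °C as tiles were imaged over ~14 h. kobs, kcat and KM were obtained by fitting normalised per-tile medians to exponential decays and then applying weighted Michaelis–Menten fits across concentrations.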"}, "[2]": {"variants_of": "B1", "experiment": "self-cleavage kobs at 160 uM GlcN6P; higher = faster cleavage; RNA array", "how_it_was_run": "as §1"}, "[3]": {"variants_of": "B1", "experiment": "self-cleavage kobs at 640 uM GlcN6P; higher = faster cleavage; RNA array", "how_it_was_run": "as §1"}, "[4]": {"variants_of": "B1", "experiment": "self-cleavage kobs at 2500 uM GlcN6P; higher = faster cleavage; RNA array", "how_it_was_run": "as §1"}, "[5]": {"variants_of": "B1", "experiment": "self-cleavage kobs at 10000 uM GlcN6P; higher = faster cleavage; RNA array", "how_it_was_run": "as §1"}},
  "note": "± gives the standard error. Fewer inactive variants are shown than the library holds.",
  "data": [
    {"variant": "U54A C67U", "values": [
      {"measurement": "self-cleavage kobs at 40 uM GlcN6P", "setting": "[1]", "value": "0.000285 ± 9.7e-05", "unit": "s⁻¹"},
      {"measurement": "self-cleavage kobs at 160 uM GlcN6P", "setting": "[2]", "value": "0.000312 ± 9.1e-05", "unit": "s⁻¹"},
      {"measurement": "self-cleavage kobs at 640 uM GlcN6P", "setting": "[3]", "value": "0.00116 ± 0.00032", "unit": "s⁻¹"},
      {"measurement": "self-cleavage kobs at 2500 uM GlcN6P", "setting": "[4]", "value": "0.00976 ± 0.0027", "unit": "s⁻¹"},
      {"measurement": "self-cleavage kobs at 10000 uM GlcN6P", "setting": "[5]", "value": "0.00584 ± 0.0013", "unit": "s⁻¹"}
    ]},
    {"variant": "A14G U55C C70U", "values": [
      {"measurement": "self-cleavage kobs at 40 uM GlcN6P", "setting": "[1]", "value": "6.64e-05 ± 2.1e-05", "unit": "s⁻¹"},
      {"measurement": "self-cleavage kobs at 10000 uM GlcN6P", "setting": "[5]", "value": "0.00236 ± 0.00041", "unit": "s⁻¹"}
    ]},
    {"variant": "U47C G66C", "values": [
      {"measurement": "self-cleavage kobs at 40 uM GlcN6P", "setting": "[1]", "value": "< 1e-05", "unit": "s⁻¹"},
      {"measurement": "self-cleavage kobs at 160 uM GlcN6P", "setting": "[2]", "value": "< 1e-05", "unit": "s⁻¹"},
      {"measurement": "self-cleavage kobs at 640 uM GlcN6P", "setting": "[3]", "value": "< 1e-05", "unit": "s⁻¹"},
      {"measurement": "self-cleavage kobs at 2500 uM GlcN6P", "setting": "[4]", "value": "< 1e-05", "unit": "s⁻¹"}
    ]},
    {"variant": "G9C A53C", "values": [
      {"measurement": "self-cleavage kobs at 40 uM GlcN6P", "setting": "[1]", "value": "< 1e-05", "unit": "s⁻¹"},
      {"measurement": "self-cleavage kobs at 160 uM GlcN6P", "setting": "[2]", "value": "< 1e-05", "unit": "s⁻¹"},
      {"measurement": "self-cleavage kobs at 640 uM GlcN6P", "setting": "[3]", "value": "< 1e-05", "unit": "s⁻¹"},
      {"measurement": "self-cleavage kobs at 10000 uM GlcN6P", "setting": "[5]", "value": "< 1e-05", "unit": "s⁻¹"}
    ]},
    {"variant": "C11G U54C C70U", "values": [
      {"measurement": "self-cleavage kobs at 40 uM GlcN6P", "setting": "[1]", "value": "< 1e-05", "unit": "s⁻¹"},
      {"measurement": "self-cleavage kobs at 10000 uM GlcN6P", "setting": "[5]", "value": "< 1e-05", "unit": "s⁻¹"}
    ]},
    {"variant": "G9C U54A U56G G66A", "values": [
      {"measurement": "self-cleavage kobs at 40 uM GlcN6P", "setting": "[1]", "value": "< 1e-05", "unit": "s⁻¹"}
    ]},
    {"variant": "G7U U65C", "values": [
      {"measurement": "self-cleavage kobs at 40 uM GlcN6P", "setting": "[1]", "value": "< 1e-05", "unit": "s⁻¹"},
      {"measurement": "self-cleavage kobs at 160 uM GlcN6P", "setting": "[2]", "value": "< 1e-05", "unit": "s⁻¹"},
      {"measurement": "self-cleavage kobs at 640 uM GlcN6P", "setting": "[3]", "value": "< 1e-05", "unit": "s⁻¹"},
      {"measurement": "self-cleavage kobs at 2500 uM GlcN6P", "setting": "[4]", "value": "< 1e-05", "unit": "s⁻¹"},
      {"measurement": "self-cleavage kobs at 10000 uM GlcN6P", "setting": "[5]", "value": "< 1e-05", "unit": "s⁻¹"}
    ]},
    {"variant": "C10U G40A A48C", "values": [
      {"measurement": "self-cleavage kobs at 40 uM GlcN6P", "setting": "[1]", "value": "< 1e-05", "unit": "s⁻¹"}
    ]},
    {"variant": "C10G A53C A64G", "values": [
      {"measurement": "self-cleavage kobs at 40 uM GlcN6P", "setting": "[1]", "value": "< 1e-05", "unit": "s⁻¹"},
      {"measurement": "self-cleavage kobs at 160 uM GlcN6P", "setting": "[2]", "value": "< 1e-05", "unit": "s⁻¹"},
      {"measurement": "self-cleavage kobs at 640 uM GlcN6P", "setting": "[3]", "value": "< 1e-05", "unit": "s⁻¹"},
      {"measurement": "self-cleavage kobs at 2500 uM GlcN6P", "setting": "[4]", "value": "< 1e-05", "unit": "s⁻¹"},
      {"measurement": "self-cleavage kobs at 10000 uM GlcN6P", "setting": "[5]", "value": "< 1e-05", "unit": "s⁻¹"}
    ]},
    {"variant": "A12G G13A C61G", "values": [
      {"measurement": "self-cleavage kobs at 40 uM GlcN6P", "setting": "[1]", "value": "< 1e-05", "unit": "s⁻¹"},
      {"measurement": "self-cleavage kobs at 10000 uM GlcN6P", "setting": "[5]", "value": "< 1e-05", "unit": "s⁻¹"}
    ]},
    {"variant": "U54G U55G", "values": [
      {"measurement": "self-cleavage kobs at 40 uM GlcN6P", "setting": "[1]", "value": "0.00108 ± 0.00018", "unit": "s⁻¹"},
      {"measurement": "self-cleavage kobs at 160 uM GlcN6P", "setting": "[2]", "value": "0.00148 ± 0.00028", "unit": "s⁻¹"},
      {"measurement": "self-cleavage kobs at 640 uM GlcN6P", "setting": "[3]", "value": "0.00673 ± 0.0015", "unit": "s⁻¹"},
      {"measurement": "self-cleavage kobs at 2500 uM GlcN6P", "setting": "[4]", "value": "0.0105 ± 0.0029", "unit": "s⁻¹"}
    ]},
    {"variant": "G9A A14C G41U U55C", "values": [
      {"measurement": "self-cleavage kobs at 40 uM GlcN6P", "setting": "[1]", "value": "< 1e-05", "unit": "s⁻¹"}
    ]},
    {"variant": "A52U A64G U69A", "values": [
      {"measurement": "self-cleavage kobs at 40 uM GlcN6P", "setting": "[1]", "value": "< 1e-05", "unit": "s⁻¹"}
    ]},
    {"variant": "C16A G43C", "values": [
      {"measurement": "self-cleavage kobs at 40 uM GlcN6P", "setting": "[1]", "value": "< 1e-05", "unit": "s⁻¹"},
      {"measurement": "self-cleavage kobs at 640 uM GlcN6P", "setting": "[3]", "value": "< 1e-05", "unit": "s⁻¹"},
      {"measurement": "self-cleavage kobs at 10000 uM GlcN6P", "setting": "[5]", "value": "< 1e-05", "unit": "s⁻¹"}
    ]},
    {"variant": "A12U C34U G41U G66C", "values": [
      {"measurement": "self-cleavage kobs at 40 uM GlcN6P", "setting": "[1]", "value": "< 1e-05", "unit": "s⁻¹"},
      {"measurement": "self-cleavage kobs at 2500 uM GlcN6P", "setting": "[4]", "value": "< 1e-05", "unit": "s⁻¹"},
      {"measurement": "self-cleavage kobs at 10000 uM GlcN6P", "setting": "[5]", "value": "< 1e-05", "unit": "s⁻¹"}
    ]},
    {"variant": "U47A G51U", "values": [
      {"measurement": "self-cleavage kobs at 40 uM GlcN6P", "setting": "[1]", "value": "< 1e-05", "unit": "s⁻¹"},
      {"measurement": "self-cleavage kobs at 160 uM GlcN6P", "setting": "[2]", "value": "< 1e-05", "unit": "s⁻¹"},
      {"measurement": "self-cleavage kobs at 10000 uM GlcN6P", "setting": "[5]", "value": "< 1e-05", "unit": "s⁻¹"}
    ]},
    {"variant": "C8U G41A G59C", "values": [
      {"measurement": "self-cleavage kobs at 40 uM GlcN6P", "setting": "[1]", "value": "< 1e-05", "unit": "s⁻¹"},
      {"measurement": "self-cleavage kobs at 10000 uM GlcN6P", "setting": "[5]", "value": "< 1e-05", "unit": "s⁻¹"}
    ]},
    {"variant": "C11U A48U G51U", "values": [
      {"measurement": "self-cleavage kobs at 40 uM GlcN6P", "setting": "[1]", "value": "< 1e-05", "unit": "s⁻¹"}
    ]},
    {"variant": "A12U G32C G41U C61A", "values": [
      {"measurement": "self-cleavage kobs at 40 uM GlcN6P", "setting": "[1]", "value": "< 1e-05", "unit": "s⁻¹"}
    ]},
    {"variant": "A36G U56G", "values": [
      {"measurement": "self-cleavage kobs at 40 uM GlcN6P", "setting": "[1]", "value": "< 1e-05", "unit": "s⁻¹"},
      {"measurement": "self-cleavage kobs at 640 uM GlcN6P", "setting": "[3]", "value": "< 1e-05", "unit": "s⁻¹"}
    ]},
    {"variant": "G35C A39G U49G C50U", "values": [
      {"measurement": "self-cleavage kobs at 40 uM GlcN6P", "setting": "[1]", "value": "< 1e-05", "unit": "s⁻¹"},
      {"measurement": "self-cleavage kobs at 640 uM GlcN6P", "setting": "[3]", "value": "< 1e-05", "unit": "s⁻¹"},
      {"measurement": "self-cleavage kobs at 2500 uM GlcN6P", "setting": "[4]", "value": "< 1e-05", "unit": "s⁻¹"},
      {"measurement": "self-cleavage kobs at 10000 uM GlcN6P", "setting": "[5]", "value": "< 1e-05", "unit": "s⁻¹"}
    ]},
    {"variant": "G40A A53G", "values": [
      {"measurement": "self-cleavage kobs at 40 uM GlcN6P", "setting": "[1]", "value": "0.000243 ± 5.3e-05", "unit": "s⁻¹"},
      {"measurement": "self-cleavage kobs at 640 uM GlcN6P", "setting": "[3]", "value": "0.0022 ± 0.0005", "unit": "s⁻¹"},
      {"measurement": "self-cleavage kobs at 2500 uM GlcN6P", "setting": "[4]", "value": "0.00571 ± 0.0011", "unit": "s⁻¹"},
      {"measurement": "self-cleavage kobs at 10000 uM GlcN6P", "setting": "[5]", "value": "0.0242 ± 0.0054", "unit": "s⁻¹"}
    ]},
    {"variant": "A6G U55G G66C C70A", "values": [
      {"measurement": "self-cleavage kobs at 40 uM GlcN6P", "setting": "[1]", "value": "0.000223 ± 8.2e-05", "unit": "s⁻¹"},
      {"measurement": "self-cleavage kobs at 640 uM GlcN6P", "setting": "[3]", "value": "0.000697 ± 0.00025", "unit": "s⁻¹"},
      {"measurement": "self-cleavage kobs at 2500 uM GlcN6P", "setting": "[4]", "value": "0.000623 ± 0.0002", "unit": "s⁻¹"},
      {"measurement": "self-cleavage kobs at 10000 uM GlcN6P", "setting": "[5]", "value": "0.000165 ± 5.3e-05", "unit": "s⁻¹"}
    ]},
    {"variant": "G9U A12G G32U G43U U45A", "values": [
      {"measurement": "self-cleavage kobs at 40 uM GlcN6P", "setting": "[1]", "value": "< 1e-05", "unit": "s⁻¹"}
    ]}
  ]
}
